Results reported in PMC2946844.

T1: 1xMBD-GFP (UniProt Q9Z2E2 1-75)
T1 sequence: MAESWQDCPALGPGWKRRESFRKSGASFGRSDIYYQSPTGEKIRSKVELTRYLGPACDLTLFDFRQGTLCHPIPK

B1: o_o_m/m_o_o (dsDNA)
DNA 1: TTTGCGGTCCGCTGCCCGACCC
DNA 2: GGGTCGGGCAGCGGACCGCAAA
modifications: strand 1 5mC17; strand 2 5mC17
B2: o_m_o/m_m_m (dsDNA)
DNA 1: TTTGCGGTCCGCTGCCCGACCC
DNA 2: GGGTCGGGCAGCGGACCGCAAA
modifications: strand 1 5mC10; strand 2 5mC5,5mC12,5mC17
B3: o_o_m/o_o_o (dsDNA)
DNA 1: TTTGCGGTCCGCTGCCCGACCC
DNA 2: GGGTCGGGCAGCGGACCGCAAA
modifications: strand 1 5mC17
B4: o_m_m/o_m_o (dsDNA)
DNA 1: TTTGCGGTCCGCTGCCCGACCC
DNA 2: GGGTCGGGCAGCGGACCGCAAA
modifications: strand 1 5mC10,5mC17; strand 2 5mC12
B5: o_o_o/m_o_m (dsDNA)
DNA 1: TTTGCGGTCCGCTGCCCGACCC
DNA 2: GGGTCGGGCAGCGGACCGCAAA
modifications: strand 2 5mC5,5mC17
B6: o_o_m/o_m_m (dsDNA)
DNA 1: TTTGCGGTCCGCTGCCCGACCC
DNA 2: GGGTCGGGCAGCGGACCGCAAA
modifications: strand 1 5mC17; strand 2 5mC5,5mC12
B7: o_o_m/o_m_o (dsDNA)
DNA 1: TTTGCGGTCCGCTGCCCGACCC
DNA 2: GGGTCGGGCAGCGGACCGCAAA
modifications: strand 1 5mC17; strand 2 5mC12
B8: o_o_o/o_m_o (dsDNA)
DNA 1: TTTGCGGTCCGCTGCCCGACCC
DNA 2: GGGTCGGGCAGCGGACCGCAAA
modifications: strand 2 5mC12
B9: o_o_o/o_m_m (dsDNA)
DNA 1: TTTGCGGTCCGCTGCCCGACCC
DNA 2: GGGTCGGGCAGCGGACCGCAAA
modifications: strand 2 5mC5,5mC12
B10: o_m_m/o_m_m (dsDNA)
DNA 1: TTTGCGGTCCGCTGCCCGACCC
DNA 2: GGGTCGGGCAGCGGACCGCAAA
modifications: strand 1 5mC10,5mC17; strand 2 5mC5,5mC12
B11: o_m_m/m_o_m (dsDNA)
DNA 1: TTTGCGGTCCGCTGCCCGACCC
DNA 2: GGGTCGGGCAGCGGACCGCAAA
modifications: strand 1 5mC10,5mC17; strand 2 5mC5,5mC17
B12: m_o_o/o_m_o (dsDNA)
DNA 1: TTTGCGGTCCGCTGCCCGACCC
DNA 2: GGGTCGGGCAGCGGACCGCAAA
modifications: strand 1 5mC5; strand 2 5mC12
B13: m_o_o/o_o_o (dsDNA)
DNA 1: TTTGCGGTCCGCTGCCCGACCC
DNA 2: GGGTCGGGCAGCGGACCGCAAA
modifications: strand 1 5mC5
B14: o_m_o/o_m_m (dsDNA)
DNA 1: TTTGCGGTCCGCTGCCCGACCC
DNA 2: GGGTCGGGCAGCGGACCGCAAA
modifications: strand 1 5mC10; strand 2 5mC5,5mC12
B15: o_m_o/o_m_o (dsDNA)
DNA 1: TTTGCGGTCCGCTGCCCGACCC
DNA 2: GGGTCGGGCAGCGGACCGCAAA
modifications: strand 1 5mC10; strand 2 5mC12
B16: m_o_o*/o_o_o (dsDNA)
DNA 1: GTAGTTTGCGGTCCGCTGCCCGACC
DNA 2: GGGTCGGGCAGCGGACCGCAAA
modifications: strand 1 5mC9
B17: m_o_o*/o_m_o (dsDNA)
DNA 1: GTAGTTTGCGGTCCGCTGCCCGACC
DNA 2: GGGTCGGGCAGCGGACCGCAAA
modifications: strand 1 5mC9; strand 2 5mC12
B18: o_m_o/m_o_m (dsDNA)
DNA 1: TTTGCGGTCCGCTGCCCGACCC
DNA 2: GGGTCGGGCAGCGGACCGCAAA
modifications: strand 1 5mC10; strand 2 5mC5,5mC17
B19: m_o_o*/m_o_m (dsDNA)
DNA 1: GTAGTTTGCGGTCCGCTGCCCGACC
DNA 2: GGGTCGGGCAGCGGACCGCAAA
modifications: strand 1 5mC9; strand 2 5mC5,5mC17
B20: o_o_o/m_m_m (dsDNA)
DNA 1: TTTGCGGTCCGCTGCCCGACCC
DNA 2: GGGTCGGGCAGCGGACCGCAAA
modifications: strand 2 5mC5,5mC12,5mC17
B21: o_o_o_o/o_o_o_o (dsDNA)
DNA 1: GAAGTCAACAGGACGGACGCCGCGCAA
DNA 2: CTCTTTCTTTGCGCGGCGTCCGTCCTGTTGACTTCCTCT
B22: o_o_m_o/o_o_m_o (dsDNA)
DNA 1: GAAGTCAACAGGACGGACGCCGCGCAA
DNA 2: B21 DNA 2
modifications: strand 1 5mC21; strand 2 5mC14
B23: m_o_o_o/o_o_m_o (dsDNA)
DNA 1: GAAGTCAACAGGACGGACGCCGCGCAA
DNA 2: B21 DNA 2
modifications: strand 1 5mC14; strand 2 5mC14
B24: m_o_o_o/o_o_o_o (dsDNA)
DNA 1: GAAGTCAACAGGACGGACGCCGCGCAA
DNA 2: B21 DNA 2
modifications: strand 1 5mC14
B25: o_o_o_m/o_o_o_o (dsDNA)
DNA 1: GAAGTCAACAGGACGGACGCCGCGCAA
DNA 2: B21 DNA 2
modifications: strand 1 5mC23
B26: o_o_o_o/o_o_m_o (dsDNA)
DNA 1: GAAGTCAACAGGACGGACGCCGCGCAA
DNA 2: B21 DNA 2
modifications: strand 2 5mC14
B27: o_o_m_o/o_o_o_o (dsDNA)
DNA 1: GAAGTCAACAGGACGGACGCCGCGCAA
DNA 2: B21 DNA 2
modifications: strand 1 5mC21
B28: o_m_o_o/o_o_o_o (dsDNA)
DNA 1: GAAGTCAACAGGACGGACGCCGCGCAA
DNA 2: B21 DNA 2
modifications: strand 1 5mC18
B29: o_m_o_o/o_o_m_o (dsDNA)
DNA 1: GAAGTCAACAGGACGGACGCCGCGCAA
DNA 2: B21 DNA 2
modifications: strand 1 5mC18; strand 2 5mC14
B30: o_m_m/m_m_m (dsDNA)
DNA 1: TTTGCGGTCCGCTGCCCGACCC
DNA 2: GGGTCGGGCAGCGGACCGCAAA
modifications: strand 1 5mC10,5mC17; strand 2 5mC5,5mC12,5mC17
B31: m_o_o*/m_m_m (dsDNA)
DNA 1: GTAGTTTGCGGTCCGCTGCCCGACC
DNA 2: GGGTCGGGCAGCGGACCGCAAA
modifications: strand 1 5mC9; strand 2 5mC5,5mC12,5mC17
B32: o_o_o/o_o_o (dsDNA)
DNA 1: TTTGCGGTCCGCTGCCCGACCC
DNA 2: GGGTCGGGCAGCGGACCGCAAA
B33: m_o_o*/o_m_m (dsDNA)
DNA 1: GTAGTTTGCGGTCCGCTGCCCGACC
DNA 2: GGGTCGGGCAGCGGACCGCAAA
modifications: strand 1 5mC9; strand 2 5mC5,5mC12
B34: o_m_m/m_o_o (dsDNA)
DNA 1: TTTGCGGTCCGCTGCCCGACCC
DNA 2: GGGTCGGGCAGCGGACCGCAAA
modifications: strand 1 5mC10,5mC17; strand 2 5mC17
B35: m_o_o/o_m_m (dsDNA)
DNA 1: TTTGCGGTCCGCTGCCCGACCC
DNA 2: GGGTCGGGCAGCGGACCGCAAA
modifications: strand 1 5mC5; strand 2 5mC5,5mC12
B36: m_o_o/m_m_m (dsDNA)
DNA 1: TTTGCGGTCCGCTGCCCGACCC
DNA 2: GGGTCGGGCAGCGGACCGCAAA
modifications: strand 1 5mC5; strand 2 5mC5,5mC12,5mC17
B37: o_o_m/m_o_m (dsDNA)
DNA 1: TTTGCGGTCCGCTGCCCGACCC
DNA 2: GGGTCGGGCAGCGGACCGCAAA
modifications: strand 1 5mC17; strand 2 5mC5,5mC17
B38: o_m_o/o_o_o (dsDNA)
DNA 1: TTTGCGGTCCGCTGCCCGACCC
DNA 2: GGGTCGGGCAGCGGACCGCAAA
modifications: strand 1 5mC10
B39: m_o_o/m_o_m (dsDNA)
DNA 1: TTTGCGGTCCGCTGCCCGACCC
DNA 2: GGGTCGGGCAGCGGACCGCAAA
modifications: strand 1 5mC5; strand 2 5mC5,5mC17

Biological target: T1, 1xMBD-GFP
Assay: SPR

Binder	Kd
B1	5.97 ± 0.08 µM
B2	0.398 ± 0.002 µM
B3	6.8 ± 0.1 µM
B4	0.271 ± 0.005 µM
B5	5.7 ± 0.3 µM
B6	0.116 ± 0.001 µM
B7	2.3 ± 0.06 µM
B8	12 ± 1 µM
B9	4.28 ± 0.05 µM
B10	0.139 ± 0.007 µM
B11	0.169 ± 0.002 µM
B12	5.5 ± 0.9 µM
B13	35 ± 1 µM
B14	0.252 ± 0.002 µM
B15	0.244 ± 0.002 µM
B16	13.1 ± 0.3 µM
B17	5.41 ± 0.05 µM
B18	8.6 ± 0.1 µM
B19	0.564 ± 0.004 µM
B20	4.6 ± 0.2 µM

Binder	Kd
B21	37 ± 2 µM
B22	0.106 ± 0.001 µM
B23	3.51 ± 0.03 µM
B24	16.8 ± 0.5 µM
B25	7.6 ± 0.2 µM
B26	3.66 ± 0.05 µM
B27	5.86 ± 0.09 µM
B28	14.7 ± 0.4 µM
B29	3.12 ± 0.04 µM
B30	0.181 ± 0.001 µM
B31	0.534 ± 0.004 µM
B32	72 ± 5 µM
B33	3.74 ± 0.06 µM
B34	3.47 ± 0.05 µM
B35	3.67 ± 0.03 µM
B36	2.2 ± 0.02 µM
B37	0.179 ± 0.001 µM
B38	10 ± 0.1 µM
B39	2.08 ± 0.02 µM
